Source: publication PMC10075959 (Science Advances, 2023)
Where two headings read alike, the source gives them in different places.

B1: MHV nucleocapsid LRS peptide 223-255 (peptide)
peptide: RQPASTVKPDMAEEIAALVLAKLGKDAGQPKQV
notes: also called murine hepatitis virus
B2: 229E-related bat coronavirus nucleocapsid LRS peptide 170-221 (peptide)
peptide: NERLPKSNSKQSNQDDIMAAVAAALEKLGFERPNDASQPQKKQNKGTPKPSR
B3: MERS nucleocapsid LRS peptide 197-238 (peptide)
peptide: not shown
B4: NL63 nucleocapsid LRS peptide 174-210 (peptide)
peptide: TRSDSNQSSSDLVAAVTLALKNLGFDNQSKSPSSSGT
notes: also called human coronavirus NL63
B5: SARS-CoV-2 N-protein leucine-rich sequence peptide N:210-246 (NLRS) (peptide)
chain: MAGNGGDAALALLLLDRLNQLESKMSGKGQQQQGQTV
B6: SARS-CoV-1 nucleocapsid LRS peptide 211-242 (peptide)
peptide: MASGGGETALALLLLDRLNQLESKVSGKGQQQ

Key:
[1] = molecular target: the molecule itself; assay: AUC + other: circular dichroism
AUC = molecular target: the molecule itself; assay: AUC
[2] = molecular target: the molecule itself; assay: AUC + other: circular dichroism; remark: listed apart in the source

| Protein | Kd [1] | stoichiometry N (AUC) | Kd [2] |
| --- | --- | --- | --- |
| B1 | 800 µM | – | – |
| B2 | 290 µM | – | – |
| B3 | 110 µM | – | – |
| B4 | 140 µM | – | – |
| B5 | – | 3 | 810 µM |
| B6 | 500 µM | – | – |
